In patent US8026218:
Bridge positions count the residues as written; N and C are the ends. Square brackets hold non-standard residues; d marks the D form. Primed or numbered codes have the meaning given here. Ends that are not written are not given here. * marks the point of attachment. Glc = O-glucosyl on Ser side chain (Ser(OGlu)/Ser(OGlc)); NH(3,5-(CF3)2-benzyl) = FC(F)(F)c1cc(CN*)cc(C(F)(F)F)c1; OBzl(3,5-(CF3)2) = FC(F)(F)c1cc(CO*)cc(C(F)(F)F)c1; Glc″ = glucosyl on the serine side-chain oxygen; Dmt = Cc1cc(O)cc(C)c1C[C@H](N)C(=O)O; Nle = CCCC[C@H](N)C(=O)O; NHBn = c1ccc(CN*)cc1

Target: δ opioid receptor of the mouse isolated vas deferens (mouse), P32300
Assay: cell-based or functional assay

Chain of δ opioid receptor of the mouse isolated vas deferens (mouse), P32300 (P32300 whole entry, stated change not applied): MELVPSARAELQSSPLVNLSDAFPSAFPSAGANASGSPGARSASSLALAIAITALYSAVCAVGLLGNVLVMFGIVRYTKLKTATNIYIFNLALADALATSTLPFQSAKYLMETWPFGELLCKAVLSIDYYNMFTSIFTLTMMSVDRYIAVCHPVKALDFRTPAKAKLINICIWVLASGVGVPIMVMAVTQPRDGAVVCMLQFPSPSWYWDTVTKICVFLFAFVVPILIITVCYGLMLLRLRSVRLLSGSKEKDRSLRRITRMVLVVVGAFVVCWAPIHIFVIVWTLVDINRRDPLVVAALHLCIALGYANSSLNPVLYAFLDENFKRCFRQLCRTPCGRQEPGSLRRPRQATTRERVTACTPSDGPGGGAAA

Binder	MVD IC50 [nM]	other results
Y[dC]GF[Nle]P[dC]W-{NH(3,5-(CF3)2-benzyl)} (disulfide 2-7) [Tyr[DCysGlyPheNleProDCys]TrpNHBn(CF3)2]	–	MVD (δ) IC50: 19 nM
Y[dA]GFMPLW-{NH(3,5-(CF3)2-benzyl)} [TyrDAlaGlyPheMetProLeuTrpNHBn(CF3)2]	14.5	–
Y[dA]GFGPLW-{OBzl(3,5-(CF3)2)} (also: TFA salt) [TyrDAlaGlyPheGlyProLeuTrpOBn(CF3)2]	172	–
YAGFMPLW (here or on the partner: D-Ala at 2; Met(O) at 5; C-terminal O-3,5-Bzl(CF3)2 ester) [TyrDAlaGlyPheMet(O)ProLeuTrpOBn(CF3)2]	33	–
H-Y[dA]GFFPLW-{OBzl(3,5-(CF3)2)} (also: TFA salt) [H-Tyr-D-Ala-Gly-Phe-Phe-Pro-Leu-Trp-O-3,5-Bzl(CF3)2]	–	MVD (δ) opioid agonist IC50: 905 nM
YAGFXPLW (here or on the partner: D-Ala at 2; Nle at 5 (written X); C-terminal O-3,5-Bzl(CF3)2 ester) [TyrDAlaGlyPheNleProLeuTrpOBn(CF3)2]	16.8	–
Y[dA]GFFPLW-{OBzl(3,5-(CF3)2)} [TyrDAlaGlyPhePheProLeuTrpOBn(CF3)2 (TY003)]	–	MVD opioid(delta) agonist IC50: 905 nM
Y[dA]GFS(Glc)PLW-{NH(3,5-(CF3)2-benzyl)} [TyrDAlaGlyPheSer(OGlu)ProLeuTrpNHBn(CF3)2]	109	–
Y[dC]GF[Nle]PCW-{NH(3,5-(CF3)2-benzyl)} (disulfide 2-7) [Tyr[DCysGlyPheNleProCys]TrpNHBn(CF3)2]	–	MVD (δ) IC50: 85 nM
Y[dA]GFMPLW-{OBzl(3,5-(CF3)2)} [TyrDAlaGlyPheMetProLeuTrpOBn(CF3)2 (TY005)]	–	MVD opioid(delta) agonist IC50: 22.3 nM
[Dmt][dA]GFMPLW-{NH(3,5-(CF3)2-benzyl)} [DmtDAlaGlyPheMetProLeuTrpNHBn(CF3)2]	1.8	–
Y[dA]GF[dF]PLW-{OBzl(3,5-(CF3)2)} [TyrDAlaGlyPheDPheProLeuTrpOBn(CF3)2]	412	–
Y[dA]GF[Nle]PS(Glc)W-{NH(3,5-(CF3)2-benzyl)} [TyrDAlaGlyPheNleProSer(OGlu)TrpNHBn(CF3)2]	12.7	–
Y[dA]GFGPLW-{OBzl(3,5-(CF3)2)} [TyrDAlaGlyPheGlyProLeuTrpOBn(CF3)2 (TY006)]	–	MVD opioid(delta) agonist IC50: 172 nM
Y[dA]GF[Nle]S(Glc″)LW-{NH(3,5-(CF3)2-benzyl)} [TyrDAlaGlyPheNleSer(OGlu)LeuTrpNHBn(CF3)2]	18	–
Y[dA]GFMPLW-{OBzl(3,5-(CF3)2)} [TyrDAlaGlyPheMetProLeuTrpOBn(CF3)2]	22.3	MVD (δ) IC50: 22 nM
Y[dC]GFCPLW-{NH(3,5-(CF3)2-benzyl)} (disulfide 2-5) [Tyr[DCysGlyPheCys]ProLeuTrpNHBn(CF3)2]	–	MVD (δ) IC50: 73 nM
Y[dA]GFFPLW-{OBzl(3,5-(CF3)2)} [TyrDAlaGlyPhePheProLeuTrpOBn(CF3)2]	905	–
Y[dC]GF[dC]PLW-{NH(3,5-(CF3)2-benzyl)} (disulfide 2-5) [Tyr[DCysGlyPheDCys]ProLeuTrpNHBn(CF3)2]	–	MVD (δ) IC50: 8.3 nM
Y[dA]GFLPLW-{OBzl(3,5-(CF3)2)} [TyrDAlaGlyPheLeuProLeuTrpOBn(CF3)2]	101	–
[Dmt][dA]GFMPLW-NHBn [DmtDAlaGlyPheMetProLeuTrpNHBn]	6.9	–
Y[dA]GFLPLW-{OBzl(3,5-(CF3)2)} [TyrDAlaGlyPheLeuProLeuTrpOBn(CF3)2 (TY004)]	–	MVD opioid(delta) agonist IC50: 101 nM
[Dmt][dA]GFMPLW-{OBzl(3,5-(CF3)2)} [DmtDAlaGlyPheMetProLeuTrpOBn(CF3)2]	1.3	–
YAGFXPLW (here or on the partner: D-Ala at 2; Nle at 5 (written X); C-terminal NH-3,5-Bzl(CF3)2 amide) [TyrDAlaGlyPheNleProLeuTrpNHBn(CF3)2]	13.6	–
